By Kd is commonly meant the concentration at which binding is half-saturated.

Assay [1] has as its target Nogo-A Δ20 (Rattus norvegicus) (UniProt Q9JK11). The following applies: cited from earlier work.
Assay [2] deals with His-tagged Nogo-A-Δ20. Briefly: MST; Nanotemper Monolith NT.115, as described in ref. 29; SPARC and Nogo-A-Δ20 (Suppl. Figure 4m).

UniProt Q9JK11, sequence (Q9JK11 544-725, stated change not applied): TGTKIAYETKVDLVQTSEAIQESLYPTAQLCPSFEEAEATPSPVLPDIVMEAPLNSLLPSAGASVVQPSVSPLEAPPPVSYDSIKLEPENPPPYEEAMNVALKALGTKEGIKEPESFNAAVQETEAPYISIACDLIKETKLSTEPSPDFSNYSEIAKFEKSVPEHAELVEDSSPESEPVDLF

With S1PR2 (from UniProt O95136), the Kd in assay [1] was 280 nM.

B1: SPARC (construct used for microscale thermophoresis not stated) (natural protein)
chain: APQQEALPDETEVVEETVAEVTEVSVGANPVQVEVGEFDDGAEETEEEVVAENPCQNHHCKHGKVCELDENNTPMCVCQDPTSCPAPIGEFEKVCSNDNKTFDSSCHFFATKCTLEGTKKGHKLHLDYIGPCKYIPPCLDSELTEFPLRMRDWLKNVLVTLYERDEDNNLLTEKQKLRVKKIHENEKRLEAGDHPVELLARDFEKNYNMYIFPVHWQFGQLDQHPIDGYLSHTELAPLRAPLIPMEHCTTRFFETCDLDNDKYIALDEWAGCFGIKQKDIDKDLVI
For the molecule B1, the Kd in assay [2] amounted to 150 nM.
